B1: CPEB3 Ribozyme (parent)
chain: GGGGGCCACAGCAGAAGCGUUCACGUCGCGGCCCCUGUCAGAUUCUGGUGAAUCUGCGAAUUCUGCUGU

Variants of: B1
Assay: self-cleavage, relative activity (ratio to wild type); higher = more cleavage; co-transcriptional

Variant | self-cleavage
GGGGGCCACAGCAGAAGCGUUCACGUCGCGGCCCCUGUCAGAUUCUGGUGAAUCCGUGAAUUCUGCUGU [U55C C57U] | 0.295
GGGGGCCACAGCAGAAGCGUUCACGUCGCGGCCCCUGUCAGAUUCUGGUGAAUCCGGGAAUUCUGCUGU [U55C C57G] | 0.322
GGGGGCCACAGCAGAAGCGUUCACGUCGCGGCCCCUGUCAGAUUCUGGUGAAUCCCCGAAUUCUGCUGU [U55C G56C] | 0.583
GGGGGCCACAGCAGAAGCGUUCACGUCGCGGCCCCUGUCAGAUUCUGGUGAAUCCACGAAUUCUGCUGU [U55C G56A] | 0.996
GGGGGCCACAGCAGAAGCGUUCACGUCGCGGCCCCUGUCAGAUUCUGGUGAAUCAGCGAAUUCUGCUCU [U55A G68C] | 1.01
GGGGGCCACAGCAGAAGCGUUCACGUCGCGGCCCCUGUCAGAUUCUGGUGAAUCCGCGAAUUCAGCUGU [U55C U64A] | 0.567
GGGGGCCACAGCAGAAGCGUUCACGUCGCGGCCCCUGUCAGAUUCUGGUGAAUCCGCGAAUACUGCUGU [U55C U62A] | 0.445
GGGGGCCACAGCAGAAGCGUUCACGUCGCGGCCCCUGUCAGAUUCUGGUGAAUCCGCGAAUCCUGCUGU [U55C U62C] | 0.592
GGGGGCCACAGCAGAAGCGUUCACGUCGCGGCCCCUGUCAGAUUCUGGUGAAUCCGCGAAUUCUGCGGU [U55C U67G] | 0.826
GGGGGCCACAGCAGAAGCGUUCACGUCGCGGCCCCUGUCAGAUUCUGGUGAAUCCGCGAAUUCUGCAGU [U55C U67A] | 0.932
GGGGGCCACAGCAGAAGCGUUCACGUCGCGGCCCCUGUCAGAUUCUGGUGAAUCAGCGAAUACUGCUGU [U55A U62A] | 0.489
GGGGGCCACAGCAGAAGCGUUCACGUCGCGGCCCCUGUCAGAUUCUGGUGAAUCAGCGAAUCCUGCUGU [U55A U62C] | 0.67
GGGGGCCACAGCAGAAGCGUUCACGUCGCGGCCCCUGUCAGAUUCUGGUGAAUCAGCGAAUUCUUCUGU [U55A G65U] | 0.421
GGGGGCCACAGCAGAAGCGUUCACGUCGCGGCCCCUGUCAGAUUCUGGUGAAUCAGCGAAUUCUCCUGU [U55A G65C] | 0.491
GGGGGCCACAGCAGAAGCGUUCACGUCGCGGCCCCUGUCAGAUUCUGGUGAAUCAGGGAAUUCUGCUGU [U55A C57G] | 0.33
GGGGGCCACAGCAGAAGCGUUCACGUCGCGGCCCCUGUCAGAUUCUGGUGAAUCAGAGAAUUCUGCUGU [U55A C57A] | 0.34
GGGGGCCACAGCAGAAGCGUUCACGUCGCGGCCCCUGUCAGAUUCUGGUGAAUCAGUGAAUUCUGCUGU [U55A C57U] | 0.369
GGGGGCCACAGCAGAAGCGUUCACGUCGCGGCCCCUGUCAGAUUCUGGUGAAUCAGCGAAUUCAGCUGU [U55A U64A] | 0.532
GGGGGCCACAGCAGAAGCGUUCACGUCGCGGCCCCUGUCAGAUUCUGGUGAAUCGGCGAAUUCUGCUGU [U55G] | 0.881
GGGGGCCACAGCAGAAGCGUUCACGUCGCGGCCCCUGUCAGAUUCUGGUGAAUCCGCGAAUUCUGCUGU [U55C] | 0.937

Variant | self-cleavage
GGGGGCCACAGCAGAAGCGUUCACGUCGCGGCCCCUGUCAGAUUCUGGUGAAUCGGCGAGUUCUGCUGU [U55G A60G] | 0.552
GGGGGCCACAGCAGAAGCGUUCACGUCGCGGCCCCUGUCAGAUUCUGGUGAAUCGGCGAUUUCUGCUGU [U55G A60U] | 0.291
GGGGGCCACAGCAGAAGCGUUCACGUCGCGGCCCCUGUCAGAUUCUGGUGAAUCGGAGAAUUCUGCUGU [U55G C57A] | 0.317
GGGGGCCACAGCAGAAGCGUUCACGUCGCGGCCCCUGUCAGAUUCUGGUGAAUCGGCGUAUUCUGCUGU [U55G A59U] | 0.394
GGGGGCCACAGCAGAAGCGUUCACGUCGCGGCCCCUGUCAGAUUCUGGUGAAUCAGCGAAUUCUGCGGU [U55A U67G] | 0.963
GGGGGCCACAGCAGAAGCGUUCACGUCGCGGCCCCUGUCAGAUUCUGGUGAAUCAGCGAAUUCUGCAGU [U55A U67A] | 0.921
GGGGGCCACAGCAGAAGCGUUCACGUCGCGGCCCCUGUCAGAUUCUGGUGAAUCCGCGAAUUCUACUGU [U55C G65A] | 0.588
GGGGGCCACAGCAGAAGCGUUCACGUCGCGGCCCCUGUCAGAUUCUGGUGAAUCCGCGAAUUCUUCUGU [U55C G65U] | 0.495
GGGGGCCACAGCAGAAGCGUUCACGUCGCGGCCCCUGUCAGAUUCUGGUGAAUCAGCAAAUUCUGCUGU [U55A G58A] | 0.927
GGGGGCCACAGCAGAAGCGUUCACGUCGCGGCCCCUGUCAGAUUCUGGUGAAUCAGCGAAUUCUGCUGG [U55A U69G] | 1
GGGGGCCACAGCAGAAGCGUUCACGUCGCGGCCCCUGUCAGAUUCUGGUGAAUCAGCGAAUUUUGCUGU [U55A C63U] | 0.736
GGGGGCCACAGCAGAAGCGUUCACGUCGCGGCCCCUGUCAGAUUCUGGUGAAUCCGCGAAGUCUGCUGU [U55C U61G] | 0.434
GGGGGCCACAGCAGAAGCGUUCACGUCGCGGCCCCUGUCAGAUUCUGGUGAAUCAGCGAACUCUGCUGU [U55A U61C] | 0.445
GGGGGCCACAGCAGAAGCGUUCACGUCGCGGCCCCUGUCAGAUUCUGGUGAAUCCGCGAUUUCUGCUGU [U55C A60U] | 0.388
GGGGGCCACAGCAGAAGCGUUCACGUCGCGGCCCCUGUCAGAUUCUGGUGAAUCCGCGAGUUCUGCUGU [U55C A60G] | 0.602
GGGGGCCACAGCAGAAGCGUUCACGUCGCGGCCCCUGUCAGAUUCUGGUGAAUCCGCGCAUUCUGCUGU [U55C A59C] | 0.464
GGGGGCCACAGCAGAAGCGUUCACGUCGCGGCCCCUGUCAGAUUCUGGUGAAUCCGCGGAUUCUGCUGU [U55C A59G] | 0.967
GGGGGCCACAGCAGAAGCGUUCACGUCGCGGCCCCUGUCAGAUUCUGGUGAAUCCGCGAAUUCUGCUAU [U55C G68A] | 0.961
GGGGGCCACAGCAGAAGCGUUCACGUCGCGGCCCCUGUCAGAUUCUGGUGAAUCAGCGACUUCUGCUGU [U55A A60C] | 0.343

From the RNAGym collection of RNA variant scans (doi:10.7554/elife.80360)
